From patent US20250052751A1 (University of California, published 2025)

Biological target: T1, MHC class II I-A^b molecules purified by affinity chromatography (;mouse, UniProt P14434 24-218; P14483 28-226, limits assumed)
T1 construct: Source of the purified I-A^b is not described beyond 'as described (22)'; also called MHC II (I-A^b); MHC II
T1 sequence (MHC II alpha, looked up): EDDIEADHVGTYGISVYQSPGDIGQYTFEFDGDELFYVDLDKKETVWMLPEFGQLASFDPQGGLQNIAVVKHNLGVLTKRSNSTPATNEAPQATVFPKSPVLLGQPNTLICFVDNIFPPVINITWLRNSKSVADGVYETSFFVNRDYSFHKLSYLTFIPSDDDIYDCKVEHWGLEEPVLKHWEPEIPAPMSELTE
T1 sequence (MHC II beta, looked up): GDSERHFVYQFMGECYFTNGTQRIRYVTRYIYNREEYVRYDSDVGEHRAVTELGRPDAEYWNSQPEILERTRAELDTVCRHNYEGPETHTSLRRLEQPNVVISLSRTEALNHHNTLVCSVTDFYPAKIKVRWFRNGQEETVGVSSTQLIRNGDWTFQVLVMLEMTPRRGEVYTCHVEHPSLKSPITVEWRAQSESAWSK
Experiment: competitive binding assay, purified I-A^b, radiolabeled competitor peptide
Description: We have now examined AQP4 peptide affinity for I-A^b biochemically. I-A^b molecules that were purified by affinity chromatography were tested in a competitive binding assay between a radiolabeled high-affinity competitor peptide and unlabeled peptides (22). Indeed, peptides containing the two pathogenic AQP4 T cell determinants bound I-A^b with higher affinity than the nonpathogenic AQP4 p24-35 T cell epitope or MOG p35-55 (FIG. 2D).

B1: AQP4 p202-218 (peptide)
peptide: LFAINYTGASMNPARSF
notes: Synthetic peptide (Genemed Synthesis); also called pathogenic AQP4 T cell determinant
With B1 the “fold greater affinity than MOG p35-55” value was over 10 fold.
